Measured values reported in patent US11672792B2, “Topical formulations comprising montelukast and combinations with mussel adhesive proteins” (ENLITISA (SHANGHAI) PHARMACEUTICAL CO., LTD, priority 2017, dated 2023).
Where “and” joins values, the source holds several entries; their conditions need not be identical. Equal values may be shown once.

Tests used:
[1] = test system: full thickness skin wounds in diabetic mice; assay: Diabetic Wound Model (Example 7); type: in vivo, db/db mice (C57BL/KsJ-db/db); conditions: Day 6; wound tissue; rhEGF 100 IU/each, Mon 100 μg/each, once daily topically
Protocol: A similar experiment with essentially the same protocol to that described in Example 6 above was carried out on 8 to 12 week-old male db/db mice (C57BL/KsJ-db/db, with a body weight of 35-45 g/mouse; supplied by Changzhou Cvens Experimental Animal Co. Ltd.).
An EMS skin biopsy punch with a […] diameter was used to make wounds.
Different drugs were administrated topically at 20 μL/wound, once daily from Day 0 to Day 18. The model group was given same amount of normal saline.
Samples were taken on Day 6, Day 12 and Day 18 post-wound inflictions.
Histological specimens were analyzed and skin regeneration, fibroblast proliferation, collagen regeneration scores (Masson score) and inflammation scores were estimated as follows.
The HE and Masson stained slices were observed under an optical microscope and were scored (1, 2 or 3 points) according to the following criteria. […]
Fibroblast proliferation was scored as the following criteria:
Inflammation was scored as the following criteria:
Collagen deposition score criterion for the Masson stained sample were as follows. […] No clear blue staining was given 0 points; blue fiber appearing in a scattered pattern was scored as 1 points; if more blue fiber appeared, this was scored as 2 points, and a diffuse blue colour was given 3 points.

[2] = test system: full thickness skin wounds; assay: Acute Wound Model (Example 6); type: in vivo, C57BL/6 mice
Protocol: 6-8 weeks old male C57BL/6 mice were supplied by Changzhou Cvens Experimental Animal Co. Ltd. Prior to any experiments being conducted, mice were housed under standardized conditions (at a constant temperature or 22±2° C., with alternating 12 hour periods of light and darkness), and were fed on a standard mouse diet with water, for about a week. […] The hair on the back was shaved by a baby hair shaver and depilated with cream. […] EMS skin biopsy punch (Electron Microscopy Sciences, P.O. […] Full thickness skin was removed and the depth reached the fascia. The wounds left open without suture. […] The model group was given same amount of normal saline. Recombinant Human Epidermal Growth Factor (rhEGF, Shanghai Haohai Biological Technology Co. Ltd, Shanghai, China) was purchased and prepared according to the manufacturer's instructions. Lyophilized rhEGF powder (100000 IU/vial) was dissolved in 20 mL of normal saline to make a solution with a 5000 IU/mL concentration. […] MedChemExpress, MCE China, Shanghai, China) was obtained in a powder form and was dissolved in ultrapure water to obtain solutions with concentrations as described in Table 22 (L, M and H indicate low, medium and high montelukast doses, respectively) Wounds were wrapped up with transparent dresser after drug administration. Photographs were taken for each wound every other day from Day 0. Photos were scanned into a computer, and wound areas calculated using ImageJ image analysis software (National Institutes of Health, […]). The unhealed wound area was expressed as a percentage of the original wound area: At/A0×100%, where A0 and At refer to the initial area at Day 0 and the wound area at the date of measurement (time t), respectively. […] Half of the tissue was preserved in 10% neutral buffered formalin (Nanchang […] Experimental Equipment Co., Ltd., Nanchang, […] Provence, China), and analyzed by histological embedding in paraffin wax, sectioning and staining. HE and Masson stained paraffin sections were analyzed under an optical microscope. Skin regeneration, fibroblastic proliferation, collagen regeneration scores and inflammation scores were estimated. The rest of the samples were stored at -80° C. for further analysis. […] The supernatant was collected, and the extracted protein was used for ELISA analysis using standard ELISA test kits and an ELISA reader (SH-1000 Hitachi, Japan). […] (Beijing, China).

[3] = wound tissue, rhEGF 100 IU/wound

B1: rhEGF: Recombinant Human Epidermal Growth Factor, 5000 IU/mL in normal saline (protein, UniProt P01133 23-1207, looked up)
Pro-epidermal growth factor: PQHWSCPEGTLAGNGNSTCVGPAPFLIFSHGNSIFRIDTEGTNYEQLVVDAGVSVIMDFHYNEKRIYWVDLERQLLQRVFLNGSRQERVCNIEKNVSGMAINWINEEVIWSNQQEGIITVTDMKGNNSHILLSALKYPANVAVDPVERFIFWSSEVAGSLYRADLDGVGVKALLETSEKITAVSLDVLDKRLFWIQYNREGSNSLICSCDYDGGSVHISKHPTQHNLFAMSLFGDRIFYSTWKMKTIWIANKHTGKDMVRINLHSSFVPLGELKVVHPLAQPKAEDDTWEPEQKLCKLRKGNCSSTVCGQDLQSHLCMCAEGYALSRDRKYCEDVNECAFWNHGCTLGCKNTPGSYYCTCPVGFVLLPDGKRCHQLVSCPRNVSECSHDCVLTSEGPLCFCPEGSVLERDGKTCSGCSSPDNGGCSQLCVPLSPVSWECDCFPGYDLQLDEKSCAASGPQPFLLFANSQDIRHMHFDGTDYGTLLSQQMGMVYALDHDPVENKIYFAHTALKWIERANMDGSQRERLIEEGVDVPEGLAVDWIGRRFYWTDRGKSLIGRSDLNGKRSKIITKENISQPRGIAVHPMAKRLFWTDTGINPRIESSSLQGLGRLVIASSDLIWPSGITIDFLTDKLYWCDAKQSVIEMANLDGSKRRRLTQNDVGHPFAVAVFEDYVWFSDWAMPSVMRVNKRTGKDRVRLQGSMLKPSSLVVVHPLAKPGADPCLYQNGGCEHICKKRLGTAWCSCREGFMKASDGKTCLALDGHQLLAGGEVDLKNQVTPLDILSKTRVSEDNITESQHMLVAEIMVSDQDDCAPVGCSMYARCISEGEDATCQCLKGFAGDGKLCSDIDECEMGVPVCPPASSKCINTEGGYVCRCSEGYQGDGIHCLDIDECQLGEHSCGENASCTNTEGGYTCMCAGRLSEPGLICPDSTPPPHLREDDHHYSVRNSDSECPLSHDGYCLHDGVCMYIEALDKYACNCVVGYIGERCQYRDLKWWELRHAGHGQQQKVIVVAVCVVVLVMLLLLSLWGAHYYRTQKLLSKNPKNPYEESSRDVRSRRPADTEDGMSSCPQPWFVVIKEHQDLKNGGQPVAGEDGQAADGSMQPTSWRQEPQLCGMGTEQGCWIPVSSDKGSCPQVMERSFHMPSYGTQTLEGGVEKPHSLLSANPLWQQRALDPPHQMELTQ
modifications: Pro-epidermal growth factor
notes: Recombinant Human Epidermal Growth Factor, 5000 IU/mL in normal saline
- VEGF content, Mean [1]: 4.55 pg/g
- remaining wound area versus the initial wound ([2]; Day 2, rhEGF 100 IU/wound once daily topically): 85.73 ± 10.29%
- remaining wound area versus the initial wound ([2]; Day 4, rhEGF 100 IU/wound): 68.15 ± 16.47%
- remaining wound area versus the initial wound ([2]; Day 6, rhEGF 100 IU/wound): 30.85 ± 1.87%
- remaining wound area versus the initial wound ([2]; Day 8, rhEGF 100 IU/wound): 16.93 ± 4.03%
- remaining wound area versus the initial wound ([2]; Day 12, rhEGF 100 IU/wound): 5.02 ± 3.03%
- Hyp content (μg/mg tissue weight), single animals [2, 3]: 6.54 μg/mg tissue weight and 4.89 μg/mg tissue weight and 5.39 μg/mg tissue weight and 5.45 μg/mg tissue weight
- Hyp content, Mean (n = 4) [2, 3]: 5.57 μg/mg tissue weight
